Experimental findings from patent US9327008B2, “Cell-permeant peptide-based inhibitor of kinases” (Purdue Research Foundation, priority 2008, dated 2016) are described below.

Common to all, as to type: biochemical
One experiment concerns the target T1, CK1δ (Homo sapiens, UniProt P48730).
T1 construct: purchased Millipore (assay service)
The experiment is described as follows: Millipore radiometric kinase activity assay, CK1δ (h). As to the method:
(§1) A commercial radiometric assay service (Millipore, Billerica, Mass.) was used to test the specificity and potency of peptides containing a coupled transduction domain and therapeutic domain, hereinafter “complete peptides”). In these assays, if the kinase is not inhibited by an inhibitor peptide, a positively charged substrate is phosphorylated with a radiolabeled phosphate group from an ATP.
(§2) In a final reaction volume of 25 μL, CK1δ (h) (5-10 mU) is incubated with 8 mM MOPS pH 7.0, 0.2 mM EDTA, 200 μM KRRRALS(p)VASLPGL [SEQ ID NO: 54], 10 mM MgAcetate and [γ-^33P-ATP] (specific activity approx. 500 cpm/pmol, concentration as required). The reaction is initiated by the addition of the MgATP mix. After incubation for 40 minutes at room temperature, the reaction is stopped by the addition of 5 μL of a 3% phosphoric acid solution. 10 μL of the reaction is then spotted onto a P30 filtermat and washed three times for 5 minutes in 75 mM phosphoric acid and once in methanol prior to drying and scintillation counting.
(§3) IC50 values for inhibitor peptides were determined using Millipore's IC50Profiler Express service. The IC50 value was estimated from a 10-point curve of one-half log dilutions. For peptides tested for specificity, the concentration of the peptides that inhibited approximately 95% of MK2 activity was chosen to profile against a battery of kinases related to MK2, cell viability, or human disease from MilliporeKinaseProfiler service. In both assays, compounds were supplied in dimethylsulfoxide (DMSO). Every kinase activity measurement was conducted in duplicate.
(§4) Therapeutic inhibitor peptides were assayed for activity against human kinases related to MK2, cell viability, or human disease. The assays were performed using concentrations of therapeutic inhibitor peptides that yielded 2% to 8% of normal MK2 activity. Error is reported as the standard deviation between 2 samples, and “c” is rat AMPK whereas all other kinases used are human kinases.

The next experiment addresses T2, EGFR (Homo sapiens, UniProt P00533).
T2 construct: purchased Millipore (assay service)
Description: Millipore radiometric kinase activity assay, EGFR (h). As to the method: as §1
as §2, with “EGFR” for “CK1δ”, “10 mM MnCl2, 0.1 mg/mL poly(Glu, Tyr) 4:1,” for “200 μM KRRRALS(p)VASLPGL [SEQ ID NO: 54],”, “Filtermat A” for “P30 filtermat”
as §3, §4

The next experiment concerns the target T3, Lck (Homo sapiens, UniProt P06239).
T3 construct: purchased Millipore (assay service)
Description: Millipore radiometric kinase activity assay, Lck (h). An excerpt:
A commercial radiometric assay service (Millipore, Billerica, Mass.) was used to test the specificity and potency of peptides containing a coupled transduction domain and therapeutic domain, hereinafter “complete peptides”). In these assays, if the kinase is not inhibited by an inhibitor peptide, a positively charged substrate is phosphorylated with a radiolabeled phosphate group from an ATP. […] The reaction is initiated by the addition of the MgATP mix. […] IC50 values for inhibitor peptides were determined using Millipore's IC50Profiler Express service. The IC50 value was estimated from a 10-point curve of one-half log dilutions. […] In both assays, compounds were supplied in dimethylsulfoxide (DMSO). Every kinase activity measurement was conducted in duplicate. Therapeutic inhibitor peptides were assayed for activity against human kinases related to MK2, cell viability, or human disease. […] Error is reported as the standard deviation between 2 samples, and “c” is rat AMPK whereas all other kinases used are human kinases.

The target of another experiment is T4, PhKγ2 (Homo sapiens, UniProt P15735).
T4 construct: purchased Millipore (radiometric assay service)
T4 sequence (P15735 1-406): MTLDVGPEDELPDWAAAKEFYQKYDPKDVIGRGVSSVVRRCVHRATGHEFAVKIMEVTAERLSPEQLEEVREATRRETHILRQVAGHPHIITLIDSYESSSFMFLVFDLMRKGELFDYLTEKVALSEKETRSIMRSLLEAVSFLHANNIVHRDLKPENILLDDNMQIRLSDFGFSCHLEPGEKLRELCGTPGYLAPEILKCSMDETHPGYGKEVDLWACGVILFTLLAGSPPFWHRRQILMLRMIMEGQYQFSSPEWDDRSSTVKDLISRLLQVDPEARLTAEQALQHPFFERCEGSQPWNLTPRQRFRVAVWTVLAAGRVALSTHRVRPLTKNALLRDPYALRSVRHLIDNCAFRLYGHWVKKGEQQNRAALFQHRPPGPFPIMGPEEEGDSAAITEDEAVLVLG
The experiment is described as follows: Millipore radiometric kinase activity assay, PhKγ2 (h). As to the method:
as §1
as §2, with “PhKγ2” for “CK1δ”, “250” for “200”, “KRRRALS(p)VASLPGL” left out, “52],” for “54],”
as §3, §4

A further experiment deals with T5, Src (residues 1-530) (Homo sapiens, UniProt P12931).
T5 construct: SRC (1-530) (h) (5-10 mU) is incubated; purchased Millipore (radiometric assay service)
The experiment is described as follows: Millipore radiometric kinase activity assay, SRC (1-530) (h). As to the method:
as §1
as §2, with “SRC (1-530)” for “CK1δ”, “[…]” for “200 μM KRRRALS(p)VASLPGL”, “58],” for “54],”
as §3, §4

T1 sequence (P48730 whole entry): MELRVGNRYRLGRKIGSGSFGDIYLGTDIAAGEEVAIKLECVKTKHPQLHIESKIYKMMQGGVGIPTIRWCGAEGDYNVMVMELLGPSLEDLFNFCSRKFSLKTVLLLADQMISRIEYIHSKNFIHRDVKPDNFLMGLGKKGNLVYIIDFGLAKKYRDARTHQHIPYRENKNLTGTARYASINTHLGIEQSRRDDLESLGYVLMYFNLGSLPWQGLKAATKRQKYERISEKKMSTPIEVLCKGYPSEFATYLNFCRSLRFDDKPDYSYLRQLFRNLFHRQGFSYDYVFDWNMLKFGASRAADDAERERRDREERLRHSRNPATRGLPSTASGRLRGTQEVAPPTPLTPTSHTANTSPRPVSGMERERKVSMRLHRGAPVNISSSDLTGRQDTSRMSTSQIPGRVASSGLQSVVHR
T3 sequence (P06239 whole entry): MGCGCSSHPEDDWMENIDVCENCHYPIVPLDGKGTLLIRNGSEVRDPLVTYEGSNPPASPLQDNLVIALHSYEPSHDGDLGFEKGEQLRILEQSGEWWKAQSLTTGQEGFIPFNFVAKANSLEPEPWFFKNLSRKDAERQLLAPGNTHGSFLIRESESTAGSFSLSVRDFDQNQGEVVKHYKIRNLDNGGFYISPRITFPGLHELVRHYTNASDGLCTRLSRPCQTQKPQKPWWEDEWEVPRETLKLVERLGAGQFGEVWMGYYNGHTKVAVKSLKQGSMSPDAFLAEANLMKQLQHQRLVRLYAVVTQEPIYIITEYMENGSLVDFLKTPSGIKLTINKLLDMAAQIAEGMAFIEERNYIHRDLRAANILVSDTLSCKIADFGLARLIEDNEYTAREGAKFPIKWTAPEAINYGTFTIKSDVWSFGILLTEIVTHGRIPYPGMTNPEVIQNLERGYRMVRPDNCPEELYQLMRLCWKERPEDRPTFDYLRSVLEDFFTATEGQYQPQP

Turning to KAFAKLAARLYRKALARQLGVAA, in the experiment with CK1δ (peptide 100 μM), the “CK1δ Kinase Activity (%) (+SD %)” value is on record as 97 (2) %. Also, the “EGFR Kinase Activity (%) (+SD %)” value with EGFR (peptide 100 μM) is 16 (1) %. In the experiment with Lck (peptide 100 μM), the “Lck Kinase Activity (%) (+SD %)” value was 847 (29) %. Moreover, in the experiment with PhKγ2 (peptide 100 μM), the “PhKγ2 Kinase Activity (%) (+SD %)” value is given as 27 (3) %. The “Src (residues 1-530) Kinase Activity (%) (+SD %)” value with Src (residues 1-530) (peptide 100 μM) was 3 (0) %.

Consider WLRRIKAWLRRIKALNRQLGVAA, for which the “CK1δ Kinase Activity (%) (+SD %)” value in the experiment with CK1δ (peptide 30 μM) is recorded as 52 (1) %; with CK1δ (peptide 100 μM), 99 (3) %. Besides, the “EGFR Kinase Activity (%) (+SD %)” value in the experiment with EGFR (peptide 30 μM) is given as 10 (4) %; with EGFR (peptide 100 μM), 18 (2) %. For the same sequence, the “Lck Kinase Activity (%) (+SD %)” value in the experiment with Lck (peptide 30 μM) was 130 (1) %; with Lck (peptide 100 μM), 493 (7) %. Besides, the “PhKγ2 Kinase Activity (%) (+SD %)” value was 15 (0) % with PhKγ2 (peptide 30 μM) and 20 (0) % with PhKγ2 (peptide 100 μM). Moreover, the “Src (residues 1-530) Kinase Activity (%) (+SD %)” value with Src (residues 1-530) (peptide 30 μM) was 6 (1) %; with Src (residues 1-530) (peptide 100 μM), 5 (1) %.
